In patent publication US6033845:

Tests used:
[1] = target: maltose binding protein (Escherichia coli (strain K12)) [MBP: P0AEX9]
[2] = target: 7B-maltose binding protein fusion protein (Feline Infectious Peritonitis Virus (Applicant's field isolate)) [MBP: P0AEX9]; conditions: scale: colonies, mean less control, at 20 µg/ml 7B

white blood cells from a cat known to have clinical FIP (cat #88) (cells without a defined receptor)
No. of Colonies (T-cell colony stimulation, two days) (colonies, mean less control) [1]: -1 | No. of Colonies (T-cell colony stimulation, two days) [2]: 31
